Values belong to the binder of their own block, whether it stands above or below them.
Biological target: Recombinant human TGFβ1 (human, UniProt P01137 279-390)
Assay: cell-based or functional assay

Chain of Recombinant human TGFβ1 (P01137 279-390 limits assumed): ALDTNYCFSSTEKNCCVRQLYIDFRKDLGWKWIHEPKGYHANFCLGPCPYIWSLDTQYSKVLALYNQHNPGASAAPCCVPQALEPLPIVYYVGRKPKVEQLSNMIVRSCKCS

% neutralisation at 91 pM antibody, MLEC proliferation assay: 12%
B1: 1D11.16 murine pan-specific anti-TGFβ monoclonal antibody (antibody, from another filing, V domains shown)
VH: QVQLQQSGPELVRPGASVKLSCKASGYIFITYWMNWVKQRPGQGLEWIGQIFPASGSTNYNEMFEGKATLTVDTSSSTAYMQLSSLTSEDSAVYYCARGDGNYALDAMDYWGQGTSVTVSS
VL: DIVLTQSPASLAVSLGQRATISCRASESVDSYGNSFMHWYQQKSGQPPKLLIYLASNLESGVPARFSGSGSRTDFTLTIDPVEADDAATYYCQQNNEDPLTFGAGTKLEIK

Geometric Mean IC50, MLEC proliferation assay (n = 6; full dose response curve not obtained): < 1 nM
B2: PET1074B9 germlined IgG4 (antibody, V domains shown)
VH: QVQLVQSGAEVKKPGSSVKVSCKASGYTFSSNVISWVRQAPGQGLEWMGGVIPIVDIANYAQRFKGRVTITADESTSTTYMELSSLRSEDTAVYYCALPRAFVLDAMDYWGQGTLVTVSS
VL: ETVLTQSPGTLSLSPGERATLSCRASQSLGSSYLAWYQQKPGQAPRLLIYGASSRAPGIPDRFSGSGSGTDFTLTISRLEPEDFAVYYCQQYADSPITFGQGTRLEIK
